Measurements from patent US20160256527A1 (ONCOMED PHARMACEUTICALS, published 2016).

Target: T1, membrane bound single chain human GITRL trimer (human, UniProt Q9UNG2 29-177)
T1 construct: Expressed on the surface of transiently transfected HEK-293 cells (co-transfected with GFP); also called single chain hGITRL trimer
T1 sequence: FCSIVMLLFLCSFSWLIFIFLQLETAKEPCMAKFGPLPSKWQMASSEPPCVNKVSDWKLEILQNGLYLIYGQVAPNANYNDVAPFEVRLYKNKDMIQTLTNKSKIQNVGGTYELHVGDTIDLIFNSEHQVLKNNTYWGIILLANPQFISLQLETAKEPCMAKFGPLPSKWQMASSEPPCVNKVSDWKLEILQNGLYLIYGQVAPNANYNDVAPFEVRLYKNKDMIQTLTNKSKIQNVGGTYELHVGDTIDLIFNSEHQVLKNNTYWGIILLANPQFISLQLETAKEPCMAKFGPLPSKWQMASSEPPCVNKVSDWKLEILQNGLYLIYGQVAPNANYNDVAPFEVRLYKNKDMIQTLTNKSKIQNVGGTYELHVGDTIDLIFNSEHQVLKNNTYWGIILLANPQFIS
Test: flow cytometry, HEK-293 cells transfected with membrane bound single chain hGITRL trimer, PE anti-human Fc
Method: FIG. 2. FACS analysis of a membrane bound single chain GITRL trimer and soluble GITR. HEK293 cells were transiently transfected with an expression vector encoding a membrane bound single chain human GITRL trimer and a second expression vector encoding green fluorescent protein (GFP). Transfected cells were incubated with soluble human GITR-Fc fusion protein and analyzed by flow cytometry. Positive binding is determined by observation of cells within the inset box of the FACS plot.
To test the ability of a single chain hGITRL trimer to bind human GITR, binding studies were conducted. Human HEK-293 cells were transiently co-transfected with expression vectors encoding (1) the membrane bound single chain hGITRL trimer construct described above and (2) green fluorescent protein (GFP) as a transfection marker. Twenty-four hours post-transfection, the cells were incubated with hGITR-Fc or a control fusion protein. The cells were stained with a PE-conjugated anti-human Fc secondary antibody and analyzed by flow cytometry.

binding result: binds
B1: soluble human GITR-Fc fusion protein (Fc fusion, UniProt Q9Y5U5 26-162, looked up)
chain: QRPTGGPGCGPGRLLLGTGTDARCCRVHTTRCCRDYPGEECCSEWDCMCVQPEFHCGDPCCTTCRHHPCPPGQGVQSQGKFSFGFQCIDCASGTFSGGHEGHCKPWTDCTQFGFLTVFPGNKTHNAVCVPGSPPAEP
notes: also called hGITR-Fc; not shown: Fc region
